Laboratory results: US20240067696A1 (ZEALAND PHARMA A S, published 2024)
Non-standard residues stand in square brackets, D forms with d. Dap = NC[C@H](N)C(=O)O; Aib = CC(C)(N)C(=O)O

Biological target: human glucagon receptor (human, UniProt P47871 26-477)
Experiment: cell-based or functional assay

human glucagon receptor, sequence (P47871 26-477): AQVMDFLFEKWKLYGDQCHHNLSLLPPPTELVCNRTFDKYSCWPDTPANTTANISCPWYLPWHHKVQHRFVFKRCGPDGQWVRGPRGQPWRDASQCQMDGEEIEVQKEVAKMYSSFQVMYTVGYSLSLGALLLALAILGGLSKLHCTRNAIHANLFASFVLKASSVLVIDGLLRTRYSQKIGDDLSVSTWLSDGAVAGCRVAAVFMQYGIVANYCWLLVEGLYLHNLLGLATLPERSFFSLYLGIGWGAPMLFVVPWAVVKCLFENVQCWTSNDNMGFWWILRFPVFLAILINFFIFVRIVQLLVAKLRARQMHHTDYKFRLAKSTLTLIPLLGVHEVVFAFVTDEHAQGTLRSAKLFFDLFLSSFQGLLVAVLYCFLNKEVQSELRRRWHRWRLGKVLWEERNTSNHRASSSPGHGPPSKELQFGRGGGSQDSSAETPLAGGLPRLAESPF

Binder | GCG-R EC50 in vitro [nM] (cAMP, AlphaScreen, HEK293 cells expressing human Glucagon-R)
H-HSQGTFTSDYSKYLDSARAEDFVEWLEST-OH [Compound 6] | 1
H-HSQGTFTSDYSRYLESARAEDFVKWLEST-OH [Compound 7] | 0.93
H-HSQGTFTSDYSKYLESARAEDFVKWLEST-OH [Compound 8] | 0.38
H-HSQGTFTSDYSKYLDSARAEDFVAWLEST-OH [Compound 4] | 0.34
H-HSQGTFTSDYSKYLDEARAKDFVEWLEKT-OH [Compound 5] | 0.17
H-HS[Dap](Ac)GTFTSDYSKYLD[Aib]ARAEEFVKWLEST-NH2 (SMILES CC(=O)NC[C@H](NC(=O)[C@H](CO)NC(=O)[C@@H](N)Cc1c[nH]cn1)C(=O)NCC(=O)N[C@H](C(=O)N[C@@H](Cc1ccccc1)C(=O)N[C@H](C(=O)N[C@@H](CO)C(=O)N[C@@H](CC(=O)O)C(=O)N[C@@H](Cc1ccc(O)cc1)C(=O)N[C@@H](CO)C(=O)N[C@@H](CCCCN)C(=O)N[C@@H](Cc1ccc(O)cc1)C(=O)N[C@@H](CC(C)C)C(=O)N[C@@H](CC(=O)O)C(=O)NC(C)(C)C(=O)N[C@@H](C)C(=O)N[C@@H](CCCNC(=N)N)C(=O)N[C@@H](C)C(=O)N[C@@H](CCC(=O)O)C(=O)N[C@@H](CCC(=O)O)C(=O)N[C@@H](Cc1ccccc1)C(=O)N[C@H](C(=O)N[C@@H](CCCCN)C(=O)N[C@@H](Cc1c[nH]c2ccccc12)C(=O)N[C@@H](CC(C)C)C(=O)N[C@@H](CCC(=O)O)C(=O)N[C@@H](CO)C(=O)N[C@H](C(N)=O)[C@@H](C)O)C(C)C)[C@@H](C)O)[C@@H](C)O) [Compound 41] | 0.0038
